Results reported in patent publication US20150216970A1 (Genentech, published 2015).
Each block holds one binder with its values, some of them ahead of it.

B4: Flag-ST-CD226 (N-terminus SNAP-tagged human CD226, expressed on transfected COS-7 or CHO cells) (receptor, UniProt Q15762 19-336, looked up)
chain: EEVLWHTSVPFAENMSLECVYPSMGILTQVEWFKIGTQQDSIAIFSPTHGMVIRKPYAERVYFLNSTMASNNMTLFFRNASEDDVGYYSCSLYTYPQGTWQKVIQVVQSDSFEAAVPSNSHIVSEPGKNVTLTCQPQMTWPVQAVRWEKIQPRQIDLLTYCNLVHGRNFTSKFPRQIVSNCSHGRWSVIVIPDVTVSDSGLYRCYLQASAGENETFVMRLTVAEGKTDNQYTLFVAGGTVLLLLFVISITTIIVIFLNRRRRRERRDLFTESWDTQKAPNNYRSPISTSQPTNQSMDDTREDIYVNYPTFSRRPKTRV
modifications: SNAP tag labelled with benzyl-guanine SNAP-Lumi-4Tb (donor) and/or SNAP-A647 (acceptor)
notes: whole, on cells; also called SNAP-tagged (ST) CD226; human ST-CD226; not shown: Flag tag; SNAP tag (ST)

Assays:
[1] = target: B4; assay: TR-FRET on transfected COS-7 cells
[2] = target: T1, CD226-Flag (Flag-tagged human CD226, expressed in transfected COS 7 cells) (human, UniProt Q15762 19-336); assay: anti-FLAG and anti-HA immunoprecipitation and immunoblot from COS-7 cells transfected with Flag-CD226 and HA-TIGIT
T1 construct: whole, on cells; This is the construct of the co-immunoprecipitation; Cells were lysed before the pull-down; also called Flag-CD226; not shown: Flag tag
T1 sequence (looked up): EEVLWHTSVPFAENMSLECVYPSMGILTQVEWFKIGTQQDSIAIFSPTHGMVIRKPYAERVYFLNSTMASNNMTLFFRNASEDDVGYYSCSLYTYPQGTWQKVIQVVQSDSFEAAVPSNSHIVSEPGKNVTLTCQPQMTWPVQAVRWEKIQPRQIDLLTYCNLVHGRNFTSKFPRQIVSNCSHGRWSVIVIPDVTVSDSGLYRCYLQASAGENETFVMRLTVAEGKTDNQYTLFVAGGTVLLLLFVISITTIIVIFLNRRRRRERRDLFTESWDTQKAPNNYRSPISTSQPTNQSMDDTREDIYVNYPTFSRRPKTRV

[3] = target: T2, endogenous CD226 on primary human T cells (human, UniProt Q15762 19-336); assay: TR-FRET on primary human T cells with fluorophore-conjugated anti-TIGIT (clone 1F4) and anti-CD226
T2 construct: whole, on cells
T2 sequence (looked up): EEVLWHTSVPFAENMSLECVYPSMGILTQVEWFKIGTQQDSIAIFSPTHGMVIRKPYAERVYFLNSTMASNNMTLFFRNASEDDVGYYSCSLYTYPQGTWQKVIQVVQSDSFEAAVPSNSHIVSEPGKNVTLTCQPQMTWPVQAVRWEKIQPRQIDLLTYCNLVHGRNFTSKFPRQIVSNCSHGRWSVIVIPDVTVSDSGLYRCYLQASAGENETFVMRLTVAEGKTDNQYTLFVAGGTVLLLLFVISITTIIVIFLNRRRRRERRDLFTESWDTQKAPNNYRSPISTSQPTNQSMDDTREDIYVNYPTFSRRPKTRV
Text: Primary human T cells were stimulated in vitro with anti-CD3 and anti-CD28 antibodies, sorted on the basis of TIGIT expression, rested, re-stimulated, and labeled with antibodies against endogenous TIGIT and CD226 that were conjugated to fluorophores compatible with TR-FRET. TIGIT-expressing T cells labeled with donor-conjugated anti-TIGIT and acceptor-conjugated anti-CD226 antibodies yielded a strong FRET signal (FIG. 30).
Human anti-TIGIT (Genentech clone 1F4), anti-CD226 (Santa Cruz Biotechnology), and anti-HVEM (eBioscience) antibodies were conjugated fluorophores compatible with TR-FRET (Cisbio). Primary human T cells were MACS-enriched from blood, stimulated in vitro with plate bound anti-CD3 and anti-CD28 for 72 hours. TIGIT-expressing and non-expressing T cells (all expressing CD226) were then sorted, rested without stimulation for 72 hours, and re-stimulated for 48 hours. […] T cells were then seeded at 400,000 cells/well in a white 96-well plate (Costar) and TR-FRET was recorded at 665 nm for 400 μs after a 60 μs delay following laser excitation at 343 nm using a PHERAstar plate reader (BMG Labtech). FRET intensity was expressed as the signal at 665 nm from cells labeled with Ab-Lumi4-Tb+Ab-d2 minus the signal at 665 nm from the same batch of cells labeled with Ab-Lumi4-Tb alone. […]

[4] = target: B4; assay: TR-FRET ratio between Flag-ST-CD226 and HA-TIGIT Q56R
TR-FRET on COS-7 cells = target: the molecule itself; assay: TR-FRET on COS-7 cells
Procedure: Briefly, COS-7 cells were transfected with SNAP-tagged (ST) CD226 and HA-TIGIT using Lipofectamine 2000 (Life Technologies) and seeded in a white 96-well plate (Costar) at 100,000 cells per well. 24 hours later, cells were labeled with 100 nM of donor-conjugated benzyl-guanine SNAP-Lumi-4Tb (Cisbio) and 1 μM […] benzyl-guanine SNAP-A647 (New England Biolabs) diluted in DMEM 10% FCS for 1 h at 37° C., 5% CO2. After three washes in PBS, the FRET signal was recorded at 665 nm for 400 μs after a 60 μs delay following laser excitation at 343 nm using a Safire2 plate reader (Tecan). When the anti-TIGIT antibody was tested, the FRET signal was also recorded after a 15 min incubation. The FRET ratio was then calculated as the FRET intensity divided by the donor emission at 620 nm. The FRET intensity being: (signal at 665 nm from cells labeled with SNAP-donor and acceptor)—(signal at 665 nm from the same batch of transfected cells labeled with SNAP-donor only).

B1: HA-TIGIT (N-terminus HA-tagged human TIGIT, expressed on transfected COS-7 or CHO cells) (receptor, UniProt Q495A1 22-244, looked up)
chain: MMTGTIETTGNISAEKGGSIILQCHLSSTTAQVTQVNWEQQDQLLAICNADLGWHISPSFKDRVAPGPGLGLTLQSLTVNDTGEYFCIYHTYPDGTYTGRIFLEVLESSVAEHGARFQIPLLGAMAATLVVICTAVIVVVALTRKKKALRIHSVEGDLRRKSAGQEEWSPSAPSPPGSCVQAEAAPAGLCGEQRGEDCAELHDYFNVLSYRSLGNCSFFTETG
notes: whole, on cells; It is treated here as one construct; also called TIGIT-HA; HA-TIGIT (WT); not shown: HA tag at the N-terminus
binding result [1]: binds | binding result [2]: binds

Binder: B4
binding result (TR-FRET on COS-7 cells): binds

Other lines, results leading:

binding result [3]: binds
B2: endogenous TIGIT on primary human T cells (receptor, UniProt Q495A1 22-244, looked up)
chain: MMTGTIETTGNISAEKGGSIILQCHLSSTTAQVTQVNWEQQDQLLAICNADLGWHISPSFKDRVAPGPGLGLTLQSLTVNDTGEYFCIYHTYPDGTYTGRIFLEVLESSVAEHGARFQIPLLGAMAATLVVICTAVIVVVALTRKKKALRIHSVEGDLRRKSAGQEEWSPSAPSPPGSCVQAEAAPAGLCGEQRGEDCAELHDYFNVLSYRSLGNCSFFTETG
notes: whole, on cells

binding result [4]: binds
B3: HA-TIGIT Q56R (receptor, UniProt Q495A1 22-244, looked up)
chain: MMTGTIETTGNISAEKGGSIILQCHLSSTTAQVTRVNWEQQDQLLAICNADLGWHISPSFKDRVAPGPGLGLTLQSLTVNDTGEYFCIYHTYPDGTYTGRIFLEVLESSVAEHGARFQIPLLGAMAATLVVICTAVIVVVALTRKKKALRIHSVEGDLRRKSAGQEEWSPSAPSPPGSCVQAEAAPAGLCGEQRGEDCAELHDYFNVLSYRSLGNCSFFTETG
notes: whole, on cells; also called Q56R TIGIT; not shown: HA tag
